Assay results published in patent US20230391860A1 (CANON MEDICAL SYSTEMS, published 2023).

Legend:
Experiment in all cases: ELISA on immobilised peptide, antibody 1 ug/mL
mCRP (31-60) = biological target: T1, mCRP (31-60) (human)
T1 peptide: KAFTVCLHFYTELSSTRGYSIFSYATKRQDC

mCRP (151-180) = biological target: T2, mCRP (151-180) (human)
T2 peptide: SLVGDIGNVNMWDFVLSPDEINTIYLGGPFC

mCRP (61-90) = biological target: T3, mCRP (61-90) (human)
T3 peptide: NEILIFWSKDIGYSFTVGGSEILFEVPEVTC

mCRP (121-150) = biological target: T4, mCRP (121-150) (human)
T4 peptide: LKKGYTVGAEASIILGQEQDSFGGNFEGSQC

mCRP (181-206) = biological target: T5, mCRP (181-206) (human)
T5 peptide: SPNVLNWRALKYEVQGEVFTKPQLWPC

mCRP (169) = biological target: T6, mCRP (169) (human)
T6 peptide: SLVGDIGNVNC
From the text: (§1) The following materials were used as materials for epitope analysis. [0156] (a) Plate: Immunoplate for ELISA (96 well) manufactured by Nunc [0157] […] (c) Solid-phase buffer: 0.1 M carbonate buffer pH 9.5 (IBL) [0159] (d) Antiserum dilution buffer: 1% BSA, 0.05% Tween-20 (Kanto Chemical Co., Inc.) in PBS [0160] (e) Labeled antibody dilution buffer: 1% BSA, 0.05% Tween-20 in PBS [0161] (f) Washing buffer: 0.05% Tween-20 in 0.1 M PB [0162] (g) Substrate buffer: K₂HPO₄-citrate buffer (pH 5.1) (IBL) [0163] (h) Reaction stop solution: 1 mol/L-H₂SO₄ (Wako Pure Chemical Industries, Ltd.)
(§2) Epitope analysis was performed by the following procedure. [0166] (a) Peptides were immobilized on a plate by standing at 50 ng/well (50 μL/well) for 16 hours at 4° C. […] (b) Solid phase peptides were washed twice with Dulbecco's PBS (D-PBS) (200 μL/well). [0168] (c) Blocking was performed by adding 200 μL of D-PBS containing 0.1% BSA and 0.05% NaN₃ to each well and leaving it at 4° C. overnight. [0169] (d) Each well was washed twice with the washing buffer. [0170] (e) The antibody was diluted to 1 μg/mL with the dilution buffer and the diluted solution was added to each well (50 μL/well) and left at 37° C. for 30 minutes. [0171] (f) Each well was washed four or more times with the washing buffer. [0172] (g) Anti-mouse IgG (γ-specific)-HRP, a labeled antibody, was added to each well (50 μL/well) and left at 37° C. for 30 minutes. [0173] (h) Each well was washed four or more times with the washing buffer. [0174] (i) A chromogenic reaction was started by adding a substrate solution (400 μg/mL) to each well (100 μL/well), and the reaction was allowed to proceed for 15 minutes at room temperature in the dark. [0175] (j) After 15 minutes, the reaction was stopped by addition of 1 mol/L sulfuric acid (100 μL/well), and absorbance (490 nm) was measured.

mCRP (69) = biological target: T7, mCRP (69) (human)
T7 peptide: IFSYATKRQDC
From the text: as §1, §2

mCRP (199) = biological target: T8, mCRP (199) (human)
T8 peptide: SPNVLNWRALC
From the text: as §1, §2

mCRP (159) = biological target: T9, mCRP (159) (human)
T9 peptide: SFGGNFEGSQC
From the text: as §1, §2

mCRP (209) = biological target: T10, mCRP (209) (human)
T10 peptide: KYEVQGEVFTKPQLWPC
From the text: as §1, §2

mCRP (189) = biological target: T11, mCRP (189) (human)
T11 peptide: INTIYLGGPFC
From the text: as §1, §2

mCRP (119) = biological target: T12, mCRP (119) (human)
T12 peptide: ESASGIVEFWC
From the text: as §1, §2

mCRP (179) = biological target: T13, mCRP (179) (human)
T13 peptide: MWDFVLSPDEC
From the text: as §1, §2

mCRP (99) = biological target: T14, mCRP (99) (human)
T14 peptide: EILFEVPEVTC
From the text: as §1, §2

mCRP (89) = biological target: T15, mCRP (89) (human)
T15 peptide: IGYSFTVGGSC
From the text: as §1, §2

mCRP (59) = biological target: T16, mCRP (59) (human)
T16 peptide: TELSSTRGYSC
From the text: as §1, §2

mCRP (39) = biological target: T17, mCRP (39) (human)
T17 peptide: SLKAPLTKPLC
From the text: as §1, §2

mCRP (29) = biological target: T18, mCRP (29) (human)
T18 peptide: FPKESDTSYVC
From the text: as §1, §2

mCRP (79) = biological target: T19, mCRP (79) (human)
T19 peptide: NEILIFWSKDC
From the text: as §1, §2

mCRP (149) = biological target: T20, mCRP (149) (human)
T20 peptide: ASIILGQEQDC
From the text: as §1, §2

mCRP (109) = biological target: T21, mCRP (109) (human)
T21 peptide: VAPVHICTSWC
From the text: as §1, §2

mCRP (139) = biological target: T22, mCRP (139) (human)
T22 peptide: LKKGYTVGAEC
From the text: as §1, §2

mCRP (129) = biological target: T23, mCRP (129) (human)
T23 peptide: VDGKPRVRKSC
From the text: as §1, §2

mCRP (49) = biological target: T24, mCRP (49) (human)
T24 peptide: KAFTVCLHFYC
From the text: as §1, §2

mCRP (19) = biological target: T25, mCRP (19) (human)
T25 peptide: QTDMSRKAFVC
From the text: as §1, §2

absorbance (490 nm) (mCRP (31-60)): 0.03 | absorbance (490 nm) (mCRP (151-180)): 0.108 | absorbance (490 nm) (mCRP (61-90)): 1.98 | absorbance (490 nm) (mCRP (121-150)): 0.017 | absorbance (490 nm) (mCRP (181-206)): 0.006 | absorbance (490 nm) (mCRP (169)): 0.001 | absorbance (490 nm) (mCRP (69)): 0.002 | absorbance (490 nm) (mCRP (199)): 0.006 | absorbance (490 nm) (mCRP (159)): 0.002 | absorbance (490 nm) (mCRP (209)): 0 | absorbance (490 nm) (mCRP (189)): 0.007 | absorbance (490 nm) (mCRP (119)): 0.005 | absorbance (490 nm) (mCRP (179)): 0.003 | absorbance (490 nm) (mCRP (99)): 1.58 | absorbance (490 nm) (mCRP (89)): 0 | absorbance (490 nm) (mCRP (59)): 0.001 | absorbance (490 nm) (mCRP (39)): 0.001 | absorbance (490 nm) (mCRP (29)): -0.001 | absorbance (490 nm) (mCRP (79)): 0 | absorbance (490 nm) (mCRP (149)): 0.001 | absorbance (490 nm) (mCRP (109)): -0.001 | absorbance (490 nm) (mCRP (139)): 0.002 | absorbance (490 nm) (mCRP (129)): 0.002 | absorbance (490 nm) (mCRP (49)): 0 | absorbance (490 nm) (mCRP (19)): 0.004
B1: human denatured CRP-specific antibody produced from hybridoma mCRP-3C (antibody, mouse IgG2b, V domains shown)
VH: QVQLQQSGAELVRPGASVKLSCKALDYTFTDYEMHWVKQTPVHGLEWIGAIHPGRGGTAYNQKFKGKATLTADKSSSTAYMELSSLTSEDSGVYYCTSYHGGYWGQGTTLTVSS
VL: DVVMTQTPLSLPVSLGDQASISCRSSQSLVHSNENTYLLWYLQKPGQSPKLLIYKVSNRFSGVPDRFSGSGSGTDFTLKISRVEAEDLGVYFCSQTTHVPWTFGGGTKLEIKR
notes: Mouse IgG2b, kappa; also called 3C antibody
